Assay results reported in patent US20030078373A1.

What was measured:
[1] = target: barnase (UniProt P00648); test: cell-based or functional assay
[2] = target: cyclophilin A (UniProt P62937); test: refolding chromatography, initially denatured cyclophilin, active peak
[3] = target: cyclophilin A (UniProt P62937); test: refolding chromatography, initially denatured cyclophilin, inactive peak
[4] = target: IGPS (49-252) (indoleglycerol phosphate synthase lacking residues 1-48); test: refolding chromatography, urea-denatured IGPS (49-252) on the fragment column, peak 1
[5] = target: IGPS (49-252) (indoleglycerol phosphate synthase lacking residues 1-48); test: refolding chromatography, urea-denatured IGPS (49-252) on the fragment column, peak 2 (refolded protein)

Chain of barnase (P00648 48-157 limits assumed): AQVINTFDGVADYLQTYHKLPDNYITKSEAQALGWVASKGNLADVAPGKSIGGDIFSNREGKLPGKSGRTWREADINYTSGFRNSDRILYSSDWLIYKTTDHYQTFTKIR

Substance | C, factor by which EX2 mechanism exchange is catalysed by GroEL fragment (globally exchanging amide protons of barnase) [1] [fold] | C, factor by which EX2 mechanism exchange is catalysed by GroEL fragment (locally exchanging amide protons of barnase) [1] [fold] | C, factor by which EX2 mechanism exchange is catalysed by GroEL fragment (mixed amide protons of barnase) [1] [fold] | Kav [2] | Kav [3] | Kav [4] | Kav [5]
GroEL 191-345 | 10 | 5 | 1 |  |  |  | 
ht-GroEL 191-345 immobilised on Ni-NTA agarose |  |  |  | 1.43 | 0.38 | 1 | 1.7
